Consider two substances from patent US6645498.

Assay [1] addresses native GA733-2 antigen (human) (UniProt P16422). In words: ELISA, antigen coated at 5 µg/ml, antibody at 10 µg/ml. A general note: ELISA stands for enzyme-linked immunosorbent assay.
The target of assay [2] is secreted recombinant GA733-2E antigen (human) (UniProt P16422). The description is as above.
For assay [3], the target named is bovine serum albumin (bovine) (UniProt P02769). Description: ELISA, BSA coated at 5 µg/ml, antibody at 10 µg/ml.
Sequence of UniProt P02769 (P02769 25-607 limits assumed): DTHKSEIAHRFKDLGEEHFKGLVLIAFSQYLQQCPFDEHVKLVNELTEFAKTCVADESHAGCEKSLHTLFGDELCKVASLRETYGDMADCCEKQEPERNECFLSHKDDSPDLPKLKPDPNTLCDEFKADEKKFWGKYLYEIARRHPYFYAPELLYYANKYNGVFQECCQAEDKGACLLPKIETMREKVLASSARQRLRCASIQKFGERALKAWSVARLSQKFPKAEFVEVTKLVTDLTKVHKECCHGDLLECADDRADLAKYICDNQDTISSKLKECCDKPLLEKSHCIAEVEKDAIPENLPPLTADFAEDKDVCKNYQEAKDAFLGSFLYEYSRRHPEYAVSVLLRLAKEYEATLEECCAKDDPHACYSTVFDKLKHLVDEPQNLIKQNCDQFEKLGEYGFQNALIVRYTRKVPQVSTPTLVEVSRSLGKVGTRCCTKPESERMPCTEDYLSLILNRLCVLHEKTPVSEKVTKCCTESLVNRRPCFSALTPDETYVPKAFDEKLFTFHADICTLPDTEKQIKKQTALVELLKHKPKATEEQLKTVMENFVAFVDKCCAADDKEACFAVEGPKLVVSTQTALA

With Normal mouse IgG (antibody), the Maximal optical density (at 405 nm) in assay [1], in assay [2] and in assay [3] was 0 OD 405 nm in each case.

For murine mAb GA733 (antibody), the Maximal optical density (at 405 nm) turned out to be 0.86 OD 405 nm in assay [1], 1.3 OD 405 nm in assay [2] and 0.02 OD 405 nm in assay [3].
